Non-standard residues stand in square brackets, D forms with d. No end group written: not given here. *: point of attachment. Biotin = O=C1N[C@H]2[C@H](CS[C@H]2CCCCC(=O)*)N1; Bpa = N[C@@H](Cc1ccc(C(=O)c2ccccc2)cc1)C(=O)O
Columns and labels:
[1] = target: T1, αAG98R-crystallin (human αA-crystallin G98R mutant) (human, UniProt P02489 1-173, G98R); assay: cross-linking; 200 µg biotinyl-Bpa peptide with 200 µg αAG98R, pH 7.2, 37°C, 1 hr; free peptide removed on a 10 kDa filter; photolysis at 365 nm, 30 min, 4°C; desalted on C18; MALDI-TOF/TOF mass spectrometry; details: both partners purified
[2] = target: T1, αAG98R-crystallin (human αA-crystallin …); assay: cross-linking; 200 µg biotinyl-Bpa peptide with 200 µg αAG98R, pH 7.2, 37°C, 1 hr; free peptide removed on a 10 kDa filter; photolysis at 365 nm, 30 min, 4°C; SDS-PAGE and western blot for biotin (avidin-horseradish peroxidase); details: both partners purified

T1 sequence (P02489 whole entry G98R): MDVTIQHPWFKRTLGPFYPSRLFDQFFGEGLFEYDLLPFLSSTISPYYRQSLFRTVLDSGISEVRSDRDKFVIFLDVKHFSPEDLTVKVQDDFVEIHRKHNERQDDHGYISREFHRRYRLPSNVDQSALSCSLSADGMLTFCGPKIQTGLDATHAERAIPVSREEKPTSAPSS

B1: Biotin-DFVIFLDVKH(Bpa)SPEDLTVK (biotinyl αA-mini-chaperone-Bpa peptide) (peptide)
peptide: Biotin-DFVIFLDVKH[Bpa]SPEDLTVK
stoichiometry N [1]: 1 peptide per αAG98R monomer | stoichiometry N [2]: 1 peptide per αAG98R subunit

Reference: paper PMC3435407 (PLoS ONE, 2012)
